Measurements reported in US8242083B2, “Kinase substrates” (PerkinElmer Health Sciences, Inc., priority 2008, dated 2012).

Key:
Assay type in all cases: biochemical
RET = RET (Homo sapiens, UniProt P07949); experiment: TR-FRET kinase assay, RET; conditions: Kinase Concentration 0.5 nM; 50 nM ULight-labeled substrate, 200 micromolar ATP, 2 hours
Method: (§1) TR-FRET kinase assays are performed under standardized conditions: various individual kinases are incubated with 50 nM of kinase substrate BRB1 labeled with the TR-FRET acceptor dye ULight (PerkinElmer) and 200 micromolar ATP in 10 μL of kinase assay buffer (50 mM HEPES pH7.5, 10 mM MgCl2, 3 mM MnCl2, 1 mM EGTA, 2 mM DTT and 0.01% Tween-20) for 2 hours at room temperature. Reactions are stopped with EDTA, and anti-phospho-tyrosine antibodies (clone PT66) labeled with the TR-FRET europium chelate donor dye are added to a final concentration of 2 nM in a final volume of 20 μL. The TR-FRET signal emitted at 665 nm is read one hour after the addition of antibodies using a TR-FRET plate reader such as the Envision® Multilabel Plate reader (PerkinElmer). The emitted signal at 665 nm is proportional to the extent of peptide phosphorylation, Control reactions indicative of background are performed excluding ATP from the reaction.
(§2) Assay conditions are identical to those used described for FIG. 1.

FLT1 = FLT1 (Homo sapiens, UniProt P17948); experiment: TR-FRET kinase assay, FLT1; conditions: Kinase Concentration 0.25 nM; 50 nM ULight-labeled substrate, 200 micromolar ATP, 2 hours
Chain of FLT1 (P17948 27-1338, species assumed): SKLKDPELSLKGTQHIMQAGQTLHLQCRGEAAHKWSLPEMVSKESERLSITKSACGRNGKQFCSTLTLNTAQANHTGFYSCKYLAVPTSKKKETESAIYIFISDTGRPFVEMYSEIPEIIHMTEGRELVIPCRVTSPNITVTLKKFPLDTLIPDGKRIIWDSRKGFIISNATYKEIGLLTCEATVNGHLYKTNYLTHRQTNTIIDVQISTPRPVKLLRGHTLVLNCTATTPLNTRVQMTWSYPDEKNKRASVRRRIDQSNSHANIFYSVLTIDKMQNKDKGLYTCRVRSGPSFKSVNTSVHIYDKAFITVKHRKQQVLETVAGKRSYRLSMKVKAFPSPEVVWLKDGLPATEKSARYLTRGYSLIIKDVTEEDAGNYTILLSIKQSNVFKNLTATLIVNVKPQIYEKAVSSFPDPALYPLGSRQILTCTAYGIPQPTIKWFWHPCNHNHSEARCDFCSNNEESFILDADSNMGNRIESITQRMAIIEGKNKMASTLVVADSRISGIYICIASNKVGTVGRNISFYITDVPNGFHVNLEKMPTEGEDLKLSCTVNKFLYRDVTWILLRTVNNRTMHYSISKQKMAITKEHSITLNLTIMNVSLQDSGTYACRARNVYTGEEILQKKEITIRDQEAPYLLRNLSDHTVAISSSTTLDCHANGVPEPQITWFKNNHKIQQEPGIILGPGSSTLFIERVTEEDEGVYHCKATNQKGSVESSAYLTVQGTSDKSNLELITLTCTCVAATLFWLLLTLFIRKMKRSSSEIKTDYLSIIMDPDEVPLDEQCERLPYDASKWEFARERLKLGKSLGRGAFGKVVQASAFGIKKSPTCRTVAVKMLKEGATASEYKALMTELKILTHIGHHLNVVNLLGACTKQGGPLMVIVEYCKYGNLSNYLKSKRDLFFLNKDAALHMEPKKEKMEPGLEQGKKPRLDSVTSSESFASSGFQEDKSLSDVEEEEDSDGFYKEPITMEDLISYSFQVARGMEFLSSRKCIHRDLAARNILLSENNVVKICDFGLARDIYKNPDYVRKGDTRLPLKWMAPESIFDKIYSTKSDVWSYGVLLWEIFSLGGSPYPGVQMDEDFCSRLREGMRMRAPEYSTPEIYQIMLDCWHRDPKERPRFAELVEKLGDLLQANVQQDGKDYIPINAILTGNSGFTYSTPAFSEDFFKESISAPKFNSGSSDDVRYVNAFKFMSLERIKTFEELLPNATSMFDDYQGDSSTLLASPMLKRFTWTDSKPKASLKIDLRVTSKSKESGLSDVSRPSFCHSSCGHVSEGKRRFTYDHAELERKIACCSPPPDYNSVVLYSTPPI
Method: as §1, §2

Eph4A tyrosine kinase = Eph4A tyrosine kinase (Homo sapiens, UniProt P54764); experiment: Stability of TR-FRET signal at 665 nm in kinase assay; conditions: for Average Signal at 665 nm: Eph4A 2 nM, 50 nM labeled peptide or 200 nM labeled co-polymer, 50 micromolar ATP
Chain of Eph4A tyrosine kinase (P54764 20-986): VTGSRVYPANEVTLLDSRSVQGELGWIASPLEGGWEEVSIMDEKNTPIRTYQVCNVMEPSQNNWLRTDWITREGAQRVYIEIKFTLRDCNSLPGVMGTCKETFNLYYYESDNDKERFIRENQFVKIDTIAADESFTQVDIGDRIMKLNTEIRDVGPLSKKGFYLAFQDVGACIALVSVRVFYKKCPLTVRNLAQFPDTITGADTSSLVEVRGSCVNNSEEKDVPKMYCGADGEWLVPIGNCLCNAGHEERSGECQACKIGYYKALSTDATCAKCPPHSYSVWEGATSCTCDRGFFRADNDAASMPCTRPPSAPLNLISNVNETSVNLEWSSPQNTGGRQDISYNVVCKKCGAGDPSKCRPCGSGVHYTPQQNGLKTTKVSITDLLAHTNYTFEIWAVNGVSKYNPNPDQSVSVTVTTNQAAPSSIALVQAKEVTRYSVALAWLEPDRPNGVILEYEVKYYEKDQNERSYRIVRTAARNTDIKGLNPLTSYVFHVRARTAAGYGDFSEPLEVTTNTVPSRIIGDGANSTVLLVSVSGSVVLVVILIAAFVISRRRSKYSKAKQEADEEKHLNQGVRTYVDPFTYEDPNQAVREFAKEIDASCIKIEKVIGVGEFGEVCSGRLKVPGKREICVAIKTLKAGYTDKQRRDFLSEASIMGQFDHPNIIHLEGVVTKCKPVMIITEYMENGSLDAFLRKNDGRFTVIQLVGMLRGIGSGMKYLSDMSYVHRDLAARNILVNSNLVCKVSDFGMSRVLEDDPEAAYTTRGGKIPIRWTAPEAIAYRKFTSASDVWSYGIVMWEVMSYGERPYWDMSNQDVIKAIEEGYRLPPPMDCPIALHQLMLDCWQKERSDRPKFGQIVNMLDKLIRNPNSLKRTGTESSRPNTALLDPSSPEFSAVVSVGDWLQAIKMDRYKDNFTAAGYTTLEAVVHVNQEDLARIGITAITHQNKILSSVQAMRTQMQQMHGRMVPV
Method: as §1
An assay comparing the stability of the random co-polymers poly-EAY, poly-EY and peptide BRB1 (SEQ ID No.3) is performed in 384-well format. Assay conditions are similar to those used in Example 1. The Eph4A tyrosine kinase is assayed at 2 nM with 50 nM of labeled peptide of SEQ ID No. 3, 200 nM labeled poly-EY or 200 nM poly-EAY and 50 micromolar ATP in 10 μL of kinase assay buffer. The reaction mixture is incubated for one hour at room temperature. Reactions are stopped with EDTA, and anti-phospho-tyrosine antibodies (clone PT66) labeled with the TR-FRET europium chelate donor dye are added to a concentration of 2 nM in a final volume of 20 μL. The TR-FRET signal emitted at 665 nm is read one, two, four, 18 and 24 hours after the addition of antibodies using a TR-FRET plate reader.

EGFR = EGFR (Homo sapiens, UniProt P00533); experiment: TR-FRET kinase assay, EGFR; conditions: Kinase Concentration 0.5 nM; 50 nM ULight-labeled substrate, 200 micromolar ATP, 2 hours
Method: as §1, §2

ROR1 = ROR1 (Homo sapiens, UniProt Q01973); experiment: TR-FRET kinase assay, ROR1; conditions: Kinase Concentration 20 nM; 50 nM ULight-labeled substrate, 200 micromolar ATP, 2 hours
Method: as §1, §2

FAK = FAK (Homo sapiens, UniProt Q05397); experiment: TR-FRET kinase assay, FAK; conditions: Kinase Concentration 3 nM; 50 nM ULight-labeled substrate, 200 micromolar ATP, 2 hours
Chain of FAK (Q05397 whole entry, species assumed): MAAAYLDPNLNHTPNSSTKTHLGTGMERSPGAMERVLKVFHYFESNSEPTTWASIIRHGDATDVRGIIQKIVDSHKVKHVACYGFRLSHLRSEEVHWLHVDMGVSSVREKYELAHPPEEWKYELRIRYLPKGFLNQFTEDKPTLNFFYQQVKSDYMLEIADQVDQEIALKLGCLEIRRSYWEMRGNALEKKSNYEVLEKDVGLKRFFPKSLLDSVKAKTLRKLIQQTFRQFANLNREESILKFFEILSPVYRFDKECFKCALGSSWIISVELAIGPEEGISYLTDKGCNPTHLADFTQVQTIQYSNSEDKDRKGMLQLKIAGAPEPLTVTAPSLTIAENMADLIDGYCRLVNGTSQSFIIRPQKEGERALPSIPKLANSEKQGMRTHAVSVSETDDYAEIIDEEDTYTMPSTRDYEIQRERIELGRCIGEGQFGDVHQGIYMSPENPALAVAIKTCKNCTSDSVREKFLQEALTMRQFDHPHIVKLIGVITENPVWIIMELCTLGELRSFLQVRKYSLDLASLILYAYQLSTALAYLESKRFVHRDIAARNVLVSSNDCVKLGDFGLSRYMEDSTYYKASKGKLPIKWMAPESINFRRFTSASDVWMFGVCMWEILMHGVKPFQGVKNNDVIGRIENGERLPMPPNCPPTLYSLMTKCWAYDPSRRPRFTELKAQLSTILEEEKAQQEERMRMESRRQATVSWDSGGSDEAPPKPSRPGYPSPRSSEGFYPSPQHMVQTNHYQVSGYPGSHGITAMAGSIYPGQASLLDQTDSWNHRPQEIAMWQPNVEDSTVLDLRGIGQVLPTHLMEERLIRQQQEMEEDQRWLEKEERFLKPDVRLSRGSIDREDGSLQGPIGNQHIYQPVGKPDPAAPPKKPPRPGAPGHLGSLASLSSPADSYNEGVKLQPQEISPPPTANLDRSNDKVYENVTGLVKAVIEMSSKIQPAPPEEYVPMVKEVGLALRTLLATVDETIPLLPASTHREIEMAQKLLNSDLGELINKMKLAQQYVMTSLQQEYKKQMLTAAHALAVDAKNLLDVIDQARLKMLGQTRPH
Method: as §1, §2

FLT4 = FLT4 (Homo sapiens, UniProt P35916); experiment: TR-FRET kinase assay, FLT4; conditions: Kinase Concentration 0.25 nM; 50 nM ULight-labeled substrate, 200 micromolar ATP, 2 hours
Chain of FLT4 (P35916 25-1363, species assumed): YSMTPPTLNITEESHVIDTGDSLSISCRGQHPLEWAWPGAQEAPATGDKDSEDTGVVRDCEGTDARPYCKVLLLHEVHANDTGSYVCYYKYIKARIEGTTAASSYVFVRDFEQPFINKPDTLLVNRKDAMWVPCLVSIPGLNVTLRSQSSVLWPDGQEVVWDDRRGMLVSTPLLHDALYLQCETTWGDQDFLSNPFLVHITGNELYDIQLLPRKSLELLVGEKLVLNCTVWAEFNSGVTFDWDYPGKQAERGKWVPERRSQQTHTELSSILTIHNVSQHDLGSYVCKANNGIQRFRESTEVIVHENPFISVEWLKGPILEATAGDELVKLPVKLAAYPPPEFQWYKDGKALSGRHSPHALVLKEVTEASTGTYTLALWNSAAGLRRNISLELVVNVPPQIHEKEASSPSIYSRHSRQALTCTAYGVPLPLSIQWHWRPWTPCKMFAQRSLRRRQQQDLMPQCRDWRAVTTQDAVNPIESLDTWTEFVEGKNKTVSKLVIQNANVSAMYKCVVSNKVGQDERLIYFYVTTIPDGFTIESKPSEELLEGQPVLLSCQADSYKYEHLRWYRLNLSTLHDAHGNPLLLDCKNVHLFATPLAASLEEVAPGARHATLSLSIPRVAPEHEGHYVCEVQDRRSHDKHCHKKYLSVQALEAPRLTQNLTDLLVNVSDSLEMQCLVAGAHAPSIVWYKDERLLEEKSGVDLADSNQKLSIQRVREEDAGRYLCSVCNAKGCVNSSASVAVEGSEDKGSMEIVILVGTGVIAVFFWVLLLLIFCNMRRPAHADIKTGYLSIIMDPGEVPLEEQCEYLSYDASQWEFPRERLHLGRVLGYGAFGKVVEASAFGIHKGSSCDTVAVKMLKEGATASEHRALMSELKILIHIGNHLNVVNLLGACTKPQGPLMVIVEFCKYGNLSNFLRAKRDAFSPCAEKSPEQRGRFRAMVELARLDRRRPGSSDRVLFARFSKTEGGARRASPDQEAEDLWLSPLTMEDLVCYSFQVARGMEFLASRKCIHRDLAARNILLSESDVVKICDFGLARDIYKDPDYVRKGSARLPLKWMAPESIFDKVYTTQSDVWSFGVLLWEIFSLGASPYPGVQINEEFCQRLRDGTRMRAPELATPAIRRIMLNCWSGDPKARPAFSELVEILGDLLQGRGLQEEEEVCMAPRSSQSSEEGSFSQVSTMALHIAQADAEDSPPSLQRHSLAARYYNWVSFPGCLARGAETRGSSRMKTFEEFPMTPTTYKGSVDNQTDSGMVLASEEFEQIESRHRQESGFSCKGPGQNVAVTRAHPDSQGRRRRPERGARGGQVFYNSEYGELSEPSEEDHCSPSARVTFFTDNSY
Method: as §1, §2

AXL = AXL (Homo sapiens, UniProt P30530); experiment: TR-FRET kinase assay, AXL; conditions: Kinase Concentration 4 nM; 50 nM ULight-labeled substrate, 200 micromolar ATP, 2 hours
Method: as §1, §2

TYRO3 = target: T1, TYRO3 (Homo sapiens, UniProt Q06418); experiment: TR-FRET kinase assay, TYRO3; conditions: Kinase Concentration 0.25 nM; 50 nM ULight-labeled substrate, 200 micromolar ATP, 2 hours
T1 sequence (Q06418 41-890): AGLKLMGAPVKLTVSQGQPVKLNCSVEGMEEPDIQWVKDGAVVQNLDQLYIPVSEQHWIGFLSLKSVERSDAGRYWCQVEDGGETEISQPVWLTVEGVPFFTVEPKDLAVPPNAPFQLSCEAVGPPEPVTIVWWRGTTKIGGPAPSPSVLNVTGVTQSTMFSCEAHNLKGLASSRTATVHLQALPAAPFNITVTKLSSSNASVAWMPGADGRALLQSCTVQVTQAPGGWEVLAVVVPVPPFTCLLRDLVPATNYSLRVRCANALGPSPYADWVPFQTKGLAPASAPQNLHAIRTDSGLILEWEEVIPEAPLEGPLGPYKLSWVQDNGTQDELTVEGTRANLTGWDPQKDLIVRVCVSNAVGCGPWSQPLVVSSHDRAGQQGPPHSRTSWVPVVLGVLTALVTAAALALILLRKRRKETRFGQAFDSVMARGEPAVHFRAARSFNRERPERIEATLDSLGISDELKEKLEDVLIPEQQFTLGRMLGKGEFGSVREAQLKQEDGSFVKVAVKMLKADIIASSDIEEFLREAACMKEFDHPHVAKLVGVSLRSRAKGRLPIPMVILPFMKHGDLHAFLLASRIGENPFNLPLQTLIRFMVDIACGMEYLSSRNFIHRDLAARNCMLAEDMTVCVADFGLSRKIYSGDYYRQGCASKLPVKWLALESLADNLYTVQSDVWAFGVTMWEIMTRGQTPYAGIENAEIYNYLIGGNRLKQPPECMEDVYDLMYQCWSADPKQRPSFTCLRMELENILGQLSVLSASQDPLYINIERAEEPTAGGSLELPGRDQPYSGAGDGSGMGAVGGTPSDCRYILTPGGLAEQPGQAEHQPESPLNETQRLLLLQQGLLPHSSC
Method: as §1, §2

C AYE AYE AYE K EYA EYA EYA K AYA EYE R (CAYEAYEAYEKEYAEYAEYAKAYAEYER; tyrosine kinase substrate peptide) [BRB1]
Signal to Noise ratio with BRB1 Peptide (RET): 20.3 | Signal to Noise ratio with BRB1 Peptide (FLT1): 4.1 | Average Signal at 665 nm (Eph4A tyrosine kinase; Incubation 1 h after addition of antibodies): 134156 | Average Signal at 665 nm (Eph4A tyrosine kinase; Incubation 18 h after addition of antibodies): 117226 | % Decrease of average signal at 665 nm (Eph4A tyrosine kinase; Incubation 18 h versus 1 h): 12.6% | Average Signal at 665 nm (Eph4A tyrosine kinase; Incubation 24 h after addition of antibodies): 115534 | % Decrease of average signal at 665 nm (Eph4A tyrosine kinase; Incubation 24 h versus 1 h): 13.9% | % Decrease of average signal at 665 nm (Eph4A tyrosine kinase; Incubation 24 h versus 1 h, listed as SEQ ID No. 3): 14% | Stability of specific TR-FRET signal at 665 nm over time (Eph4A tyrosine kinase; after addition of europium-labeled anti-phospho-tyrosine antibody): more stable | Signal to Noise ratio with BRB1 Peptide (EGFR): 10.0 | Signal to Noise ratio with BRB1 Peptide (ROR1): 1.1 | Signal to Noise ratio with BRB1 Peptide (FAK): 1.7 | Signal to Noise ratio with BRB1 Peptide (FLT4): 20.0 | Signal to Noise ratio with BRB1 Peptide (AXL): 1.8 | Signal to Noise ratio with BRB1 Peptide (TYRO3): 6.1
